Experiments:
MS2 coat protein [1] = experiment: apparent KD of MS2 coat protein; higher = weaker reporter binding; settings: Eterna round: R101
Description: (§1)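 RNA-MaP: designed FMN/MS2 RNA switches (84 nt design region) are transcribed on-chip within common flanks and titrated with SNAP-549-labelled MS2 coat protein (about 1-3000 nM) in 100 mM Tris pH 7.5, 80 mM KCl, 4 mM MgCl2, without or with 200 uM FMN. Median apparent KD per design; activation ratio = KD,OFF / KD,ON.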

MS2 coat protein [2] = experiment: apparent KD of MS2 coat protein; designed switch direction (-1 OFF switch, 1 ON switch): -1; higher = weaker reporter binding; settings: Eterna round: R98
Description: as §1

MS2 coat protein [3] = experiment: apparent KD of MS2 coat protein; designed switch direction (-1 OFF switch, 1 ON switch): 1; higher = weaker reporter binding; settings: Eterna round: R98
Description: as §1

Sequence | apparent KD of MS2 coat protein (MS2 coat protein [1]; input ligand: FMN 200 uM) [nM] | apparent KD of MS2 coat protein (MS2 coat protein [1]; input ligand: none) [nM] | other results
GCAGCUAAUGCAGGAUAUCAGCACGUGUAGUGCUGAGAAGGGCACAUGAGGAUCAAAACUGUGAUCAAUUAAUAUUAAUGCUGC [salish99#hingeEx3_55-58_001] (puzzle (switch architecture): Exclusion NG 1) | 8.28 | 9.12 | 
AAUAUAAAGAGCUGGUCUCAAAUAACAUGAGGAUCACCCAUGUAGGAUAUCAGCACGAUAAGUGCUGAGAAGGACAUCCAGCUC [Denovo 49] |  |  | apparent KD of MS2 coat protein (MS2 coat protein [2]; input ligand: FMN 200 uM): 18.9 nM; apparent KD of MS2 coat protein (MS2 coat protein [2]; input ligand: none): 15.9 nM
UAUUAUUUGGAGAAGGACAUGAGGAUCACCCAUGUCGCCGGGCCCGGGAAACCGGGCCCGGCCAUGUAGGAUAUCCGGAUGGUA [#This is a good prank 4] (puzzle (switch architecture): Inverted Exclusion NG 2) | 7.61 | 7.31 | 
UAAAUAGAUCCUAGAGGAUCACCCUAGGAUAUCACCGUCGAGGUGCCAUAAUGGCACCUCGACGGUGAGAAGGAGGUUGAUAAA [#SharedSequence - SLExNG3: 7] (puzzle (switch architecture): Small Loop Exclusion NG 3) | 19.9 | 11.4 | 
AAAAUAAAGGCAGGAUAUACAUGAAUAUAUAAUAUAAUAUAUAAUAUAACAUGAGGAUCACCCAUGUAGAAGGGCCAAAAUAAA [LRO026_Exclusion NG 2] |  |  | apparent KD of MS2 coat protein (MS2 coat protein [2]; input ligand: FMN 200 uM): 88.1 nM; apparent KD of MS2 coat protein (MS2 coat protein [2]; input ligand: none): 46.4 nM
AAAUGAUAUCAGAAGGGCUCCAGCAAAGCUGGAGCAGGAUAUGAGGAUCACCCAUGUCACCUGACGGUCGAAACGACCGUCAGG [#SharedSequence - IExNG1: 7-3] (puzzle (switch architecture): Inverted Exclusion NG 1) | 205 | 26.6 | 
GGUCGACUUCAAGGAUAUGGACUGCAAAGCAGUCCAGAAGGUGAGGAUCACCCACCUACGGUCAGGAAACUGACCGAUCGACCA [#SharedSequence - ExNG1-4] (puzzle (switch architecture): Exclusion NG 1) | 12.3 | 10.5 | 
UAAAUAAAUCCUAGAGGAUCACCCUAGGAUAUCACCGUCGAGGUGCCAUAAUGGCACCUCGACGGUGAGAAGGAGGGAAAUAAA [#SharedSequence - SLExNG3: 3] (puzzle (switch architecture): Small Loop Exclusion NG 3) | 11.6 | 9.97 | 
GGAGAUACAUGAGGAUCACCCAUGUAGGAUAUAUAGUAUAUAUAUAUUGAAAGAUAUAUAUAUAUAUAGAAGGGCGUGCACACC [#LOL-17] (puzzle (switch architecture): Small Loop Exclusion NG 3) | 6.32 | 8.77 | 
UCAGGUCGGGAAGGAUAUCGGCCGCAGAGAGCUCGAGAAGGUCCCGACAUGAGGAUCACCCAUGUUGAAGGAUCCUAACGUGCC [Maonan] |  |  | apparent KD of MS2 coat protein (MS2 coat protein [2]; input ligand: FMN 200 uM): 35.4 nM; apparent KD of MS2 coat protein (MS2 coat protein [2]; input ligand: none): 38.3 nM
AAAUCUCGAGCCGACGGGAGAGUACAUGAGGAUCACCCAUGUGAGGAUAUCCCUGAGAAGACGGCGGAGAAGGCACUGGGUAGG [Erzaribeve] (puzzle (switch architecture): Exclusion NG 3) | 9.95 | 8.6 | 
CAGUCGACCAUAACAAGGUCGACUGACUUCUGAGGAUCACCCAGAAGGCGUCACCUAAUAGGUGACGAGGAUAUGGAGUGAAAA [#SharedSequence IExNG# - 6] (puzzle (switch architecture): Inverted Exclusion NG 3) | 75 | 95 | 
UUACUCAUGUAAGGAUAUGCAGCCGAAACGGCUGCAGAAGGUACUAUAAUACAUGAGGAUCACCCAUGUAAAAUAAAUAAGGUU (puzzle (switch architecture): Same State NG 1) | 19.5 | 44.1 | 
UAAAUAAAUCCUAGAGGAUCACCCUAGGAUAUCACCGUCGAGGUGCCAUAAUGGCACCUCGACGGUGAGAAGGAGGUUGAUAAA [#SharedSequence - SLExNG3: 6] (puzzle (switch architecture): Small Loop Exclusion NG 3) | 13 | 8.33 | 
GUAGCAUUGAGAGGAUAUCCAUACCGGAAACGGACAUGAGGAUCACCCAUGUGGCGAAAGCCUUGGGAGAAGGCUCUAUGCUAC [S-state NG2 01] (puzzle (switch architecture): Same State NG 2) |  | 4.34 | 
GGUCCAACAUGAGGAUAUGGCACCUUAUUGGUGCCAGAAGGCGUGUCGAUAGACAUGAGGAUCACCCAUGUAAUAAAUUGGACC [SameState #23 NG1] |  |  | apparent KD of MS2 coat protein (MS2 coat protein [3]; input ligand: FMN 200 uM): 138 nM; apparent KD of MS2 coat protein (MS2 coat protein [3]; input ligand: none): 467 nM
AAAUGCCUGUCGAUGCUCGACAUGAGGAUCACCCAUGUAUAGCAGGAUAUGCAGAACUGACUCGUGCAGAAGGGCUAUACCUAA (puzzle (switch architecture): Exclusion NG 3) | 52.8 | 18.7 | 
GCGCGCGCGUCAGGAUAUACAUGAGGAUCACCCAUGUGUGCGCGCGCGCGCGCGCGCGCGCGCGUGUAGAAGGGACGCUGUCGC [Incredible-Exclusion NG 2] |  |  | apparent KD of MS2 coat protein (MS2 coat protein [2]; input ligand: FMN 200 uM): 20.6 nM; apparent KD of MS2 coat protein (MS2 coat protein [2]; input ligand: none): 14.4 nM
UAUUUAUGGUGAGGAUAUGCAAAGGAUCACCUUGUAGAAGGCAUCAGGUAGAAGGUGCAGAGGAUCACCCUGUAAGGAUAUAUC [pwkr2 ssNG1 DX.22] |  |  | apparent KD of MS2 coat protein (MS2 coat protein [3]; input ligand: FMN 200 uM): 66.1 nM; apparent KD of MS2 coat protein (MS2 coat protein [3]; input ligand: none): 232 nM
AAAUAAAUUCAAGGAUAUCAGUGGCAAAGCCACUGAGAAGGUGAGGAUCACCCACCUAUGAUCACAGGUGACGAAAGUCACCUG [#SharedSequence ExNG1 - 38] (puzzle (switch architecture): Exclusion NG 1) | 11.4 | 11.3 | 
AAUAAUCUUUAAGGAUAUCAGUGGCAAAGCCACUGAGAAGGUGAGGAUCACCCACCUACGUGACCCUGGAAACAGGGUCACGAA [#SharedSequence - ExNG1-10] (puzzle (switch architecture): Exclusion NG 1) | 15.4 | 14.3 | 
UAUAUAUAUUGAGGAUAUGCACAGGAUCACCGUGUAGAAGGCAUCAGGGAGAAGGUGCAGAGGAUCACCCUGUAAGGAUAUCAU [pwkr2 ssNG1 DX.1] |  |  | apparent KD of MS2 coat protein (MS2 coat protein [3]; input ligand: FMN 200 uM): 146 nM; apparent KD of MS2 coat protein (MS2 coat protein [3]; input ligand: none): 205 nM
AUAUAUAUAUAGAAGGACAUGAGGAUCACCCAUGUCGCCGGGCCCGGGAAACCGGGCCCGGCCAUGUAGGAUAUAUAUAUAUAU [#This is a good prank 12] (puzzle (switch architecture): Inverted Exclusion NG 2) | 5.57 | 3.55 | 
AAAAUAAAAUAAAUUAACAUGAGGAUCACCCAUGUCGCUAGACAGGAUAUAUAAAAUAAAAUAAAGUAGAAGGGUCAAAUAAAA [LRO001_SS NG 3] |  |  | apparent KD of MS2 coat protein (MS2 coat protein [3]; input ligand: FMN 200 uM): 88.2 nM; apparent KD of MS2 coat protein (MS2 coat protein [3]; input ligand: none): 114 nM
GCCAUCGCAUGAGGAUAUGCUCCGGUUUCCGGAGCAGAAGGCAUGUCAUAAGACAUGAGGAUCACCCAUGUAGUUAAGAUGGCA [#HiddenHairpinInALoop - jl-sng1-2.00 jl mod - Original] (puzzle (switch architecture): Same State NG 1) | 10.6 | 283 | 
AAAUAAACUCAAGGAUAUGACUCCGAAACGGAGUCAGAAGGUGAGGAUCACCCACCUAAGAUCAGACCUCAGGAAACUGAGGUC [#SharedSequence ExNG1 - 36] (puzzle (switch architecture): Exclusion NG 1) | 13.2 | 6.46 | 
GAGAAGAAGUUAGGAUAUUGGAUAGGGACGGAAUAAGAAGGAGCAAGGGACAUGAGGAUCACCCAUGUAGAAGAAGAGAUCCUC [X-NG1_50] (puzzle (switch architecture): Exclusion NG 1) | 10.9 | 26.7 | 
GCACUGGAUGUAGGAUAUCAGGACGAUAAGUCCUGAGAAGGACAUGAGGAUCACCCAUGUCCCAAAACCAGUGCAUAUAAUAUA [Denovo Exng1 31] |  |  | apparent KD of MS2 coat protein (MS2 coat protein [2]; input ligand: FMN 200 uM): 19.8 nM; apparent KD of MS2 coat protein (MS2 coat protein [2]; input ligand: none): 14.3 nM
UUUAUUUAUUGAGGAUAUGCACAGGAUCACCGUGUAGAAGGCAUCAGGGAGAAGGUGCAGAGGAUCACCCUGUAAGGAUAUCAC [pwkr2 ssNG1 DX.2] |  |  | apparent KD of MS2 coat protein (MS2 coat protein [3]; input ligand: FMN 200 uM): 144 nM; apparent KD of MS2 coat protein (MS2 coat protein [3]; input ligand: none): 381 nM
